Experimental data as given in publication PMC9482650, “Quantitative fragmentomics allow affinity mapping of interactomes” (Nature Communications, 2022).

Legend:
Assay in all cases: holdup assay
Set-up in all cases: key: below the threshold = too weak to quantify, mostly under pKd 3.1 to 4
APBA1_1, Q02410 = biological target: T1, APBA1_1, Q02410
T1 sequence (Q02410 651-752, limits assumed, looked up): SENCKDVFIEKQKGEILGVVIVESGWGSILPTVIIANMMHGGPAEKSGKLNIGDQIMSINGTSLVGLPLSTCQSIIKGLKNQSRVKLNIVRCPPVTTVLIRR

APBA1_2, Q02410 = biological target: T2, APBA1_2, Q02410
T2 sequence (Q02410 742-832, limits assumed, looked up): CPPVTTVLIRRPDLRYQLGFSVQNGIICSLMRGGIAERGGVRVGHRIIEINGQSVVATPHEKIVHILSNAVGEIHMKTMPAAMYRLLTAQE

DFNB31_2, Q9P202 = biological target: T3, DFNB31_2, Q9P202
T3 sequence (Q9P202 274-371, limits assumed, looked up): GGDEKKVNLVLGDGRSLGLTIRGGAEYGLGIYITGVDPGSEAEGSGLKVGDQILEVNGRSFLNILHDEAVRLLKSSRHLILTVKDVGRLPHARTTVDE

DLG4_3, P78352 = biological target: DLG4_3, P78352
Sequence of DLG4_3, P78352 (P78352 306-403): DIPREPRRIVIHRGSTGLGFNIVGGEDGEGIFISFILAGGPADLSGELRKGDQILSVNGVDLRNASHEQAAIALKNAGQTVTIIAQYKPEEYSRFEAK

FRMPD1, Q5SYB0 = biological target: T4, FRMPD1, Q5SYB0
T4 sequence (Q5SYB0 52-145, limits assumed, looked up): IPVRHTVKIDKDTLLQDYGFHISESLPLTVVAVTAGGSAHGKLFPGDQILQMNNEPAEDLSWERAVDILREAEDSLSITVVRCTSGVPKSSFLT

GIPC2, Q8TF65 = biological target: GIPC2, Q8TF65
Sequence of GIPC2, Q8TF65 (Q8TF65 112-203): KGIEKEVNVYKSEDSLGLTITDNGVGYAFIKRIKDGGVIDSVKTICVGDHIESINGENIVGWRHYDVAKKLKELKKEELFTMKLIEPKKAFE

GOPC, Q9HD26 = biological target: GOPC, Q9HD26
GRIP1_4, Q9Y3R0 = biological target: T5, GRIP1_4, Q9Y3R0
T5 sequence (Q9Y3R0 467-571, limits assumed, looked up): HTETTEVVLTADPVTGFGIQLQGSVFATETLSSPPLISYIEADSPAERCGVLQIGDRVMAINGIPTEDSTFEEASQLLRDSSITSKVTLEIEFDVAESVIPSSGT

GRIP1_5, Q9Y3R0 = biological target: T6, GRIP1_5, Q9Y3R0
T6 sequence (Q9Y3R0 568-668, limits assumed, looked up): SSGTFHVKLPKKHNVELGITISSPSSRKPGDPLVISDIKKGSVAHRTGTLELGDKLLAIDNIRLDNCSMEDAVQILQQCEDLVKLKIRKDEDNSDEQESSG

HTRA1, Q92743 = biological target: HTRA1, Q92743
Sequence of HTRA1, Q92743 (Q92743 360-477): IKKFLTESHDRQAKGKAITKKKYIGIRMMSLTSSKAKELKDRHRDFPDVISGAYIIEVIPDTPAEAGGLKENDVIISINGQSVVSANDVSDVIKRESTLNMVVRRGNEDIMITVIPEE

HTRA3, P83110 = biological target: T7, HTRA3, P83110
T7 sequence (P83110 354-453, limits assumed, looked up): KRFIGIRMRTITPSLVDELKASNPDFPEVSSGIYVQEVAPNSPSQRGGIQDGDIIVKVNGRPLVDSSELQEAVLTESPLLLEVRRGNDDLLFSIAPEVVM

HTRA4, P83105 = biological target: T8, HTRA4, P83105
T8 sequence (P83105 378-476, limits assumed, looked up): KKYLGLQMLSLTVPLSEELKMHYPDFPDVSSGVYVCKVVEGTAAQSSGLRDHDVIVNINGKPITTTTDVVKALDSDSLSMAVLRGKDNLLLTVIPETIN

Inadl_1, Q8NI35 = biological target: Inadl_1, Q8NI35
Sequence of Inadl_1, Q8NI35 (Q8NI35 113-229): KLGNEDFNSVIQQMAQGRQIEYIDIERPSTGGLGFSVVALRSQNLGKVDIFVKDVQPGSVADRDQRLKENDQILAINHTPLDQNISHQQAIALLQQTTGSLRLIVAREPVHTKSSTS

Inadl_2, Q8NI35 = biological target: Inadl_2, Q8NI35
Sequence of Inadl_2, Q8NI35 (Q8NI35 238-335): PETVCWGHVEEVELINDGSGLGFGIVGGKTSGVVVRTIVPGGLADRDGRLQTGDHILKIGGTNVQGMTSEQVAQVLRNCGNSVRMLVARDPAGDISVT

Inadl_3, Q8NI35 = biological target: Inadl_3, Q8NI35
Sequence of Inadl_3, Q8NI35 (Q8NI35 359-469): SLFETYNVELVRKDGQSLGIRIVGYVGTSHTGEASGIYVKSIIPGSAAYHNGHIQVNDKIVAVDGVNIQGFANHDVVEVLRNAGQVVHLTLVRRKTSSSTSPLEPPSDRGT

Inadl_4, Q8NI35 = biological target: Inadl_4, Q8NI35
Sequence of Inadl_4, Q8NI35 (Q8NI35 547-651): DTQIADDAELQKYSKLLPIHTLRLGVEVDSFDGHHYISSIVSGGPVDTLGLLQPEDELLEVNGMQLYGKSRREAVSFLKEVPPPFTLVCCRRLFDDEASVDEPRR

MAGI2_4, Q86UL8 = biological target: MAGI2_4, Q86UL8
Sequence of MAGI2_4, Q86UL8 (Q86UL8 772-865): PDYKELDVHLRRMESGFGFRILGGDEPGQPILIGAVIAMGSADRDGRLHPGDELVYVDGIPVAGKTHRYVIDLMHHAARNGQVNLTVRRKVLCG

MPDZ_10, O75970 = biological target: T9, MPDZ_10, O75970
T9 sequence (O75970 1624-1722, limits assumed, looked up): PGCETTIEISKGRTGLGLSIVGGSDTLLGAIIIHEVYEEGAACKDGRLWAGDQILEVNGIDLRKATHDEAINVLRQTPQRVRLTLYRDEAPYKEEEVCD

NHERF4_1, Q86UT5-2 = biological target: NHERF4_1, Q86UT5-2
Sequence of NHERF4_1, Q86UT5-2 (Q86UT5 other isoform, or with tags, fused parts or gaps): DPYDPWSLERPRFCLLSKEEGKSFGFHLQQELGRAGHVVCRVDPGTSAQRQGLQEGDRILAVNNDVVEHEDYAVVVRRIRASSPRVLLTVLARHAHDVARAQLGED

NOS1, P29475 = biological target: NOS1, P29475
Sequence of NOS1, P29475 (P29475 9-101): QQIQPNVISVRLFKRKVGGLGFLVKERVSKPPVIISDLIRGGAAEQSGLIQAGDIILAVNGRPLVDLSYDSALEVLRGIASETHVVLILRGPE

PDZRN3_1, Q9UPQ7 = biological target: T10, PDZRN3_1, Q9UPQ7
T10 sequence (Q9UPQ7 244-349, limits assumed, looked up): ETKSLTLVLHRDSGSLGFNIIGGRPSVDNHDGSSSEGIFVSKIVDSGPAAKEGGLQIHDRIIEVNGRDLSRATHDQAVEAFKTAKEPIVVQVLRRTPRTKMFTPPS

SCRIB_2, Q14160 = biological target: SCRIB_2, Q14160
Sequence of SCRIB_2, Q14160 (Q14160 857-960): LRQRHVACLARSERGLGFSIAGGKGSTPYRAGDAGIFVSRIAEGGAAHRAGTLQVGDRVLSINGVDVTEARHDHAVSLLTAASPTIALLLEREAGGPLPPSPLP

SCRIB_3, Q14160 = biological target: SCRIB_3, Q14160
Sequence of SCRIB_3, Q14160 (Q14160 999-1103): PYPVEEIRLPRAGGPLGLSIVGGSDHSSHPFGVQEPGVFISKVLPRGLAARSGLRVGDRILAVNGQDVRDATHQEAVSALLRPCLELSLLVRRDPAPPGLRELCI

TIAM2, Q8IVF5 = biological target: T11, TIAM2, Q8IVF5
T11 sequence (Q8IVF5 885-986, limits assumed, looked up): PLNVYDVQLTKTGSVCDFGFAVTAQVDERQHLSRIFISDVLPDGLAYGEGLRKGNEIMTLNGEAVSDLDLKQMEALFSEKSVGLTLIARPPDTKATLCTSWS

TJP2_1, Q9UDY2 = biological target: TJP2_1, Q9UDY2
Sequence of TJP2_1, Q9UDY2 (Q9UDY2 24-128): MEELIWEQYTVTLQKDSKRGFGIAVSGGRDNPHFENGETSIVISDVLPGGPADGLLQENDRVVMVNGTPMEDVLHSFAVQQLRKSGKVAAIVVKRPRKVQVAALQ

TJP3_3, O95049 = biological target: T12, TJP3_3, O95049
T12 sequence (O95049 375-456, limits assumed, looked up): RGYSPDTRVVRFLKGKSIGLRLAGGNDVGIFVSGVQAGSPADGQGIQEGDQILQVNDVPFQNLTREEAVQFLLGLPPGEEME

[1] = plain residues with an end cap or a label only (N-terminal biotin on a linker: ahx)
[2] = plain residues with an end cap or a label only (N-terminal biotin on a linker: ttds)

B1: KCTD3, Q9Y597 (peptide)
chain: SDSSGQEYSL
pKd (APBA1_1, Q02410; [1]): below the threshold
pKd (APBA1_2, Q02410; [1]): 3.65
pKd (DFNB31_2, Q9P202; [1]): below the threshold
pKd (DLG4_3, P78352; [1]): below the threshold
pKd (FRMPD1, Q5SYB0; [1]): below the threshold
pKd (GIPC2, Q8TF65; [1]): 3.64
pKd (GOPC, Q9HD26; [1]): below the threshold
pKd (GRIP1_4, Q9Y3R0; [1]): below the threshold
pKd (GRIP1_5, Q9Y3R0; [1]): below the threshold
pKd (HTRA1, Q92743; [1]): 3.98
pKd (HTRA3, P83110; [1]): below the threshold
pKd (HTRA4, P83105; [1]): below the threshold
pKd (Inadl_1, Q8NI35; [1]): below the threshold
pKd (Inadl_2, Q8NI35; [1]): below the threshold
pKd (Inadl_3, Q8NI35; [1]): below the threshold
pKd (Inadl_4, Q8NI35; [1]): below the threshold
pKd (MAGI2_4, Q86UL8; [1]): below the threshold
pKd (MPDZ_10, O75970; [1]): 3.56
pKd (NHERF4_1, Q86UT5-2; [1]): below the threshold
pKd (NOS1, P29475; [1]): 3.61
pKd (PDZRN3_1, Q9UPQ7; [1]): below the threshold
pKd (SCRIB_2, Q14160; [1]): below the threshold
pKd (SCRIB_3, Q14160; [1]): below the threshold
pKd (TIAM2, Q8IVF5; [1]): below the threshold
pKd (TJP2_1, Q9UDY2; [1]): below the threshold
pKd (TJP3_3, O95049; [1]): below the threshold

B2: SHROOM4, Q9ULL8 (peptide)
chain: ESLLLGPSNF
pKd (APBA1_1, Q02410; [1]): below the threshold
pKd (APBA1_2, Q02410; [1]): below the threshold
pKd (DFNB31_2, Q9P202; [1]): below the threshold
pKd (DLG4_3, P78352; [1]): below the threshold
pKd (FRMPD1, Q5SYB0; [1]): below the threshold
pKd (GIPC2, Q8TF65; [1]): below the threshold
pKd (GOPC, Q9HD26; [1]): below the threshold
pKd (GRIP1_4, Q9Y3R0; [1]): below the threshold
pKd (GRIP1_5, Q9Y3R0; [1]): below the threshold
pKd (HTRA1, Q92743; [1]): below the threshold
pKd (HTRA3, P83110; [1]): below the threshold
pKd (HTRA4, P83105; [1]): below the threshold
pKd (Inadl_1, Q8NI35; [1]): below the threshold
pKd (Inadl_2, Q8NI35; [1]): below the threshold
pKd (Inadl_3, Q8NI35; [1]): 3.59
pKd (Inadl_4, Q8NI35; [1]): below the threshold
pKd (MAGI2_4, Q86UL8; [1]): below the threshold
pKd (MPDZ_10, O75970; [1]): below the threshold
pKd (NHERF4_1, Q86UT5-2; [1]): below the threshold
pKd (NOS1, P29475; [1]): below the threshold
pKd (PDZRN3_1, Q9UPQ7; [1]): below the threshold
pKd (SCRIB_2, Q14160; [1]): below the threshold
pKd (SCRIB_3, Q14160; [1]): below the threshold
pKd (TIAM2, Q8IVF5; [1]): 3.49
pKd (TJP2_1, Q9UDY2; [1]): below the threshold
pKd (TJP3_3, O95049; [1]): below the threshold

B3: HPV59-E6, Q81964 (peptide)
chain: QRQARSETLV
pKd (APBA1_1, Q02410; [2]): below the threshold
pKd (APBA1_2, Q02410; [2]): below the threshold
pKd (DFNB31_2, Q9P202; [2]): below the threshold
pKd (DLG4_3, P78352; [2]): 4.21
pKd (FRMPD1, Q5SYB0; [2]): below the threshold
pKd (GIPC2, Q8TF65; [2]): below the threshold
pKd (GOPC, Q9HD26; [2]): 3.92
pKd (GRIP1_4, Q9Y3R0; [2]): below the threshold
pKd (GRIP1_5, Q9Y3R0; [2]): below the threshold
pKd (HTRA1, Q92743; [2]): 4.14
pKd (HTRA3, P83110; [2]): 3.69
pKd (HTRA4, P83105; [2]): 3.78
pKd (Inadl_1, Q8NI35; [2]): below the threshold
pKd (Inadl_2, Q8NI35; [2]): below the threshold
pKd (Inadl_3, Q8NI35; [2]): below the threshold
pKd (Inadl_4, Q8NI35; [2]): below the threshold
pKd (MAGI2_4, Q86UL8; [2]): 5.71
pKd (MPDZ_10, O75970; [2]): below the threshold
pKd (NHERF4_1, Q86UT5-2; [2]): below the threshold
pKd (NOS1, P29475; [2]): 4.26
pKd (PDZRN3_1, Q9UPQ7; [2]): 4.22
pKd (SCRIB_2, Q14160; [2]): 4.18
pKd (SCRIB_3, Q14160; [2]): 3.86
pKd (TIAM2, Q8IVF5; [2]): below the threshold
pKd (TJP2_1, Q9UDY2; [2]): 3.81
pKd (TJP3_3, O95049; [2]): 3.7
